The source of these data is the supplement of paper PMC11246515.

The data set can be described thus: total protein half-life in vivo (active degradation + dilution); higher = more stable protein.
Setting [1] is: E. coli NCM3722 delta-clpP, growth: N-lim chemostat, doubling time 6 h.
[2] abbreviates: wild type E. coli NCM3722, growth: N-lim chemostat, doubling time 12 h.
Setting [3] is: wild type E. coli NCM3722, growth: P-lim chemostat, doubling time 12 h.
Where [4] appears, read: E. coli NCM3722 delta-clpP delta-lon delta-hslV, growth: N-lim chemostat, doubling time 6 h.
[5] abbreviates: E. coli NCM3722 delta-hslV, growth: N-lim chemostat, doubling time 6 h.
[6] abbreviates: E. coli NCM3722 delta-lon, growth: N-lim chemostat, doubling time 6 h.
[7] abbreviates: E. coli NCM3722 delta-smpB, growth: N-lim chemostat, doubling time 6 h.
Setting [8] is: wild type E. coli NCM3722, growth: C-lim chemostat, doubling time 3 h.
The mark [9] stands for this setting: wild type E. coli NCM3722, growth: C-lim chemostat, doubling time 6 h.
Setting [10] is: wild type E. coli NCM3722, growth: C-lim chemostat, doubling time 12 h.
Setting [11] is: wild type E. coli NCM3722, growth: N-lim chemostat, doubling time 6 h.
The mark [12] stands for this setting: wild type E. coli NCM3722, growth: P-lim chemostat, doubling time 6 h.

± gives the standard deviation of the averaged measurements.

“MSIDFTPGIINTYHGDIYNCTTNTDNAKTPDTPKWPCDNWEEQQPINSTFSGEGYISDQYDLAQHQLQQINACHTNTTYTNADYSKVVAQLVSLITNIETISSTQLTQQTQSILNQINNIRYEKNKSAECRIIVIANPKPDKAIITKISVEEGIPITFSVQTMFSDTNFIAEQRADLPTNIKDIQSLYQKMTKLYIEHSENKNRMKVFAGTNFIDFNMTGQNLSGFVLTLSRFYFEDLLNINFTDANLGKVRISGEILLG”: the “total protein half-life in vivo” value came to 5.86 h under setting [1], 8.68 h under setting [2] and 14.6 h under setting [3].

Take “MNILLAFKAEPDAGMLAEKEWQAAAQGKSGPDISLLRSLLGADEQAAAALLLAQRKNGTPMSLTALSMGDERALHWLRYLMALGFEEAVLLETAADLRFAPEFVARHIAEWQHQNPLDLIITGCQSSEGQNGQTPFLLAEMLGWPCFTQVERFTLDALFITLEQRTEHGLRCCRVRLPAVIAVRQCGEVALPVPGMRQRMAAGKAEIIRKTVAAEMPAMQCLQLARAEQRRGATLIDGQTVAEKAQKLWQDYLRQRMQP”: the “total protein half-life in vivo” value under setting [4] was 5.73 ± 0.78 h.

Take “MAQQTPLYEQHTLCGARMVDFHGWMMPLHYGSQIDEHHAVRTDAGMFDVSHMTIVDLRGSRTREFLRYLLANDVAKLTKSGKALYSGMLNASGGVIDDLIVYYFTEDFFRLVVNSATREKDLSWITQHAEPFGIEITVRDDLSMIAVQGPNAQAKAATLFNDAQRQAVEGMKPFFGVQAGDLFIATTGYTGEAGYEIALPNEKAADFWRALVEAGVKPCGLGARDTLRLEAGMNLYGQEMDETISPLAANMGWTIAWEPADRDFIGREALEVQREHGTEKLVGLVMTEKGVLRNELPVRFTDAQGNQHEGIITSGTFSPTLGYSIALARVPEGIGETAIVQIRNREMPVKVTKPVFVRNGKAVA”: the “total protein half-life in vivo” value under setting [4] came out at 4.25 ± 0.29 h; the “total protein half-life in vivo” value under setting [1] worked out at 3.94 ± 0.048 h; the “total protein half-life in vivo” value under setting [5] was determined as 4.22 ± 0.35 h; the “total protein half-life in vivo” value under setting [6] came to 4.16 ± 0.17 h; the “total protein half-life in vivo” value under setting [7] came to 3.94 ± 0.068 h; the “total protein half-life in vivo” value under setting [8] amounted to 3.01 ± 0.22 h. The “total protein half-life in vivo” value was 5.71 ± 0.81 h under setting [9]; 10.5 ± 0.62 h under setting [10]; 3.81 ± 0.2 h under setting [11]; 6.76 ± 0.92 h under setting [2]; 5.88 ± 0.12 h under setting [12]; 11.4 ± 0.68 h under setting [3].

Regarding “MNMFFRLTALAGLLAIAGQTFAVEDITRADQIPVLKEETQHATVSERVTSRFTRSHYRQFDLDQAFSAKIFDRYLNLLDYSHNVLLASDVEQFAKKKTELGDELRSGKLDVFYDLYNLAQKRRFERYQYALSVLEKPMDFTGNDTYNLDRSKAPWPKNEAELNALWDSKVKFDELSLKLTGKTDKEIRETLTRRYKFAIRRLAQTNSEDVFSLAMTAFAREIDPHTNYLSPRNTEQFNTEMSLSLEGIGAVLQMDDDYTVINSMVAGGPAAKSKAISVGDKIVGVGQTGKPMVDVIGWRLDDVVALIKGPKGSKVRLEILPAGKGTKTRTVTLTRERIRLEDRAVKMSVKTVGKEKVGVLDIPGFYVGLTDDVKVQLQKLEKQNVSSVIIDLRSNGGGALTEAVSLSGLFIPAGPIVQVRDNNGKVREDSDTDGQVFYKGPLVVLVDRFSASASEIFAAAMQDYGRALVVGEPTFGKGTVQQYRSLNRIYDQMLRPEWPALGSVQYTIQKFYRVNGGSTQRKGVTPDIIMPTGNEETETGEKFEDNALPWDSIDAATYVKSGDLTAFEPELLKEHNARIAKDPEFQNIMKDIARFNAMKDKRNIVSLNYAVREKENNEDDATRLARLNERFKREGKPELKKLDDLPKDYQEPDPYLDETVNIALDLAKLEKARPAEQPAPVK”, the “total protein half-life in vivo” value runs as follows: under setting [4], 6.08 ± 0.32 h; under setting [1], 6.08 ± 0.59 h; under setting [5], 6.0465 ± 0.0037 h; under setting [6], 6.36 ± 0.18 h; under setting [7], 5.95 ± 0.39 h; under setting [8], 2.99 ± 0.082 h. Also, the “total protein half-life in vivo” value reads like this: under setting [9], 5.66 ± 0.27 h; under setting [10], 10.9 ± 1.1 h; under setting [11], 6.13 ± 0.35 h; under setting [2], 12.8 ± 0.28 h; under setting [12], 5.879 ± 0.052 h; under setting [3], 12.9 ± 1.3 h.

Regarding “MRKYRLSEEQRAFSYQEDGTKKNVLLRQIIAISDFNDVIAGTAGGWIDRETVLAQEGNCWIYDQNAIAFGGAVISGNTRITGTSVLWGEVYATDNVWIDNSEISQGAYISDSVTIHDSLVYGQCRIFGHALIDQHSMIVAAQGLTPDHQLLLQIYDRARVSASRIVHQAQIYGDAVVRYAFIEHRAEVFDFASIEGNEENNVWLCDCAKVYGHAQVKAGIEEDAIPTIHYSSQVAEYAIVEGNCVLKHHVLVGGNAVVRGGPILLDEHVVIQGESRITGAVIIENHVELTDHAVVEAFDGDTVHVRGPKVINGEERITRTPLAGLL”, the “total protein half-life in vivo” value is 4.51 h under setting [1]; 3.02 h under setting [5]; 2.62 ± 0.092 h under setting [7]; 2.39 h under setting [8]; 6.16 h under setting [10]; 3.27 h under setting [11]. Moreover, the “total protein half-life in vivo” value was 5.74 h under setting [2] and 8.26 ± 1 h under setting [3].

With “MAHQLKLLKDDFFASDQQAVAVADRYPQDVFAEHTHDFCELVIVWRGNGLHVLNDRPYRITRGDLFYIHADDKHSYASVNDLVLQNIIYCPERLKLNLDWQGAIPGFNASAGQPHWRLGSMGMAQARQVIGQLEHESSQHVPFANEMAELLFGQLVMLLNRHRYTSDSLPPTSSETLLDKLITRLAASLKSPFALDKFCDEASCSERVLRQQFRQQTGMTINQYLRQVRVCHAQYLLQHSRLLISDISTECGFEDSNYFSVVFTRETGMTPSQWRHLNSQKD”, the “total protein half-life in vivo” value under setting [8] is 1.63 h.

As for “MSVMFDPDTAIYPFPPKPTPLSIDEKAYYREKIKRLLKERNAVMVAHYYTDPEIQQLAEETGGCISDSLEMARFGAKHPASTLLVAGVRFMGETAKILSPEKTILMPTLQAECSLDLGCPVEEFNAFCDAHPDRTVVVYANTSAAVKARADWVVTSSIAVELIDHLDSLGEKIIWAPDKHLGRYVQKQTGGDILCWQGACIVHDEFKTQALTRLQEEYPDAAILVHPESPQAIVDMADAVGSTSQLIAAAKTLPHQRLIVATDRGIFYKMQQAVPDKELLEAPTAGEGATCRSCAHCPWMAMNGLQAIAEALEQEGSNHEVHVDERLRERALVPLNRMLDFAATLRG”, the “total protein half-life in vivo” value under setting [4] is 3.98 ± 0.16 h; the “total protein half-life in vivo” value under setting [1] came out at 1.78 ± 0.25 h; the “total protein half-life in vivo” value under setting [5] is 0.977 ± 0.24 h; the “total protein half-life in vivo” value under setting [6] came to 1.1 ± 0.098 h; the “total protein half-life in vivo” value under setting [7] came to 1.08 ± 0.25 h; the “total protein half-life in vivo” value under setting [8] stood at 1.14 ± 0.026 h. Also, the “total protein half-life in vivo” value reads like this: under setting [9], 1.39 ± 0.083 h; under setting [10], 1.8 ± 0.44 h; under setting [11], 0.926 ± 0.058 h; under setting [2], 1.03 ± 0.097 h; under setting [12], 1.26 h; under setting [3], 2.48 ± 0.81 h.
